Assay results taken from patent US20120316071A1 (published 2012).
Each block holds one binder with its values, some of them ahead of it.

What was measured:
[1] = target: T1, rHuman HGF R/c-MET/Fc Chimera, CF (R&D Systems Cat#358-MT/CF) (human, UniProt P08581 25-932); assay: MSD multispot ECL, antigen spotted on plate, Fab 22 nM; blank spot 289
T1 construct: Bought from R&D Systems; also called HGF R/Fc; hepatocyte growth factor receptor (HGF R/c-Met); not shown: Fc of the bought chimera

[2] = target: T2, rHuman CD44/Fc Chimera, CF (R&D Systems Cat#3660-CD) (human, UniProt P16070 21-220); assay: as above
T2 construct: Bought from R&D Systems; not shown: Fc of the bought chimera

[3] = target: T3, rHuman EGF R/Fc Chimera, CF (R&D Systems Cat#344-ER) (human, UniProt P00533 25-645); assay: as above
T3 construct: Bought from R&D Systems; also called epidermal growth factor receptor (EGF R); not shown: Fc of the bought chimera

[4] = target: T4, rHuman Notch-1/Fc Chimera, CF (R&D Systems Cat#3647-TK) (human, UniProt P46531 19-526); assay: as above
T4 construct: Bought from R&D Systems; not shown: Fc of the bought chimera

[5] = target: T5, rHuman ErbB2/Fc Chimera, CF (R&D Systems Cat#1129-ER) (human, UniProt P04626 23-652); assay: as above
T5 construct: Bought from R&D Systems; also called human epidermal growth factor 2 receptor (ErbB2); not shown: Fc of the bought chimera

[6] = target: T6, rHuman IGF-1 sR, (IGF-1 sR), CF (R&D Systems Cat#391-GR) (human, UniProt P08069 31-932); assay: as above
T6 construct: Bought from R&D Systems and called a soluble receptor; also called insulin-like growth factor-1 soluble receptor

[7] = target: T7, rHuman Erythropoietin R/Fc Chimera, CF (R&D Systems Cat#963-ER) (human, UniProt P19235 25-250); assay: as above
T7 construct: Bought from R&D Systems; also called EPO R/Fc; Epo R/Fc chimera; not shown: Fc of the bought chimera
T7 sequence (looked up): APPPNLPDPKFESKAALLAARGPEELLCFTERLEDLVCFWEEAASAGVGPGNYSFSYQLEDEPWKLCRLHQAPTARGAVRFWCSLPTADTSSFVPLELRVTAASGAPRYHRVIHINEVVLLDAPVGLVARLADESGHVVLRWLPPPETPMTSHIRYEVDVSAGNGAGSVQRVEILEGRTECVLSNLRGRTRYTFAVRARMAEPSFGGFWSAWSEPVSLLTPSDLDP

[8] = target: T8, Recombinant Human DLL4 (R&D Systems Cat#1506-D4/CF) (human, UniProt Q9NR61 27-524); assay: as above
T8 construct: Bought from R&D Systems; also called rHuman DLL4; delta-like protein 4

[9] = target: T9, rHuman P-Cadherin/Fc Chimera, CF (R&D Systems Cat#861-PC) (human, UniProt P22223 108-654); assay: as above
T9 construct: Bought from R&D Systems; not shown: Fc of the bought chimera

[10] = target: T10, rHuman IGF-1 sR, CF (R&D Systems Cat#391-GR) (human, UniProt P08069 31-932); assay: Multispot ECL (MSD), antigen spotted on plate, Fab 125 nM; blank spot 403
T10 construct: Bought recombinant soluble receptor; also called insulin-like growth factor-1 soluble receptor

[11] = target: T11, rHuman Notch-1/Fc Chimera, CF (R&D Systems Cat#3647-TK) (human, UniProt P46531 19-526); assay: ECL multispot (MSD) assay, spotted antigen; Fab 20.00 (head prints uM)
T11 construct: Bought recombinant protein; Fc part of the bought chimera not given

[12] = target: T12, rHuman CD44/Fc Chimera, CF (R&D Systems Cat#3660-CD) (human, UniProt P16070 21-220); assay: as above
T12 construct: Bought recombinant protein; Fc part of the bought chimera not given

[13] = target: T13, rHuman IGF-1 sR, CF (R&D Systems Cat#391-GR) (human, UniProt P08069 31-932); assay: as above
T13 construct: Bought soluble receptor; The column head prints only 'IGF-1'; also called insulin-like growth factor-1 soluble receptor

[14] = target: T14, Recombinant Human DLL4 (R&D Systems Cat#1506-D4/CF) (human, UniProt Q9NR61 27-524); assay: as above
T14 construct: Bought recombinant protein; also called delta-like protein 4

[15] = target: T15, rHuman HGF R/c-MET/Fc Chimera, CF (R&D Systems Cat#358-MT/CF) (human, UniProt P08581 25-932); assay: as above
T15 construct: Bought recombinant protein; also called HGF R/Fc; Fc part of the bought chimera not given

[16] = target: T16, rHuman Erythropoietin R/Fc Chimera, CF (R&D Systems Cat#963-ER) (human, UniProt P19235 25-250); assay: as above
T16 construct: Bought recombinant protein; also called EPO R; EPO R/Fc; Fc part of the bought chimera not given
T16 sequence (looked up): T7 sequence (looked up)

[17] = target: T17, rHuman ErbB2/Fc Chimera, CF (R&D Systems Cat#1129-ER) (human, UniProt P04626 23-652); assay: as above
T17 construct: Bought recombinant protein; Fc part of the bought chimera not given

[18] = target: T18, rHuman EGF R/Fc Chimera, CF (R&D Systems Cat#344-ER) (human, UniProt P00533 25-645); assay: as above
T18 construct: Bought recombinant protein; Fc part of the bought chimera not given

[19] = target: T19, rHuman P-Cadherin/Fc Chimera, CF (R&D Systems Cat#861-PC) (human, UniProt P22223 108-654); assay: as above
T19 construct: Bought recombinant protein; Fc part of the bought chimera not given

ECL signal [1]: 203
ECL signal [2]: 317
ECL signal [3]: 312
ECL signal [4]: 389
ECL signal [5]: 363
ECL signal [6]: 347
ECL signal [7]: 2240
ECL signal [8]: 342
ECL signal [9]: 215
B1: Fab VH1-46_IGHD3-10*01_IGHJ4*01 & B3_IGKJ1*01 (Fab, V domains shown)
VH: QVQLVQSGAEVKKPGASVKVSCKASGYTFTSYYMHWVRQAPGQGLEWMGIINPSGGSTSYAQKFQGRVTMTRDTSTSTVYMELSSLRSEDTAVYYCAREYYYGSGSYYNDYFDYWGQGTLVTVSS
VL: not shown
notes: Tested as a Fab made in E. coli; VH was cloned into Plasmid A (CH1 constant region, His6 and Flag tags); The kappa VL was cloned into Plasmid C (kappa CL)

ECL signal [10]: 654
B2: Fab VH1-46_IGHD6-13*01_IGHJ4*01 & B3_IGKJ1*01 (Fab, V domains shown)
VH: QVQLVQSGAEVKKPGASVKVSCKASGYTFTSYYMHWVRQAPGQGLEWMGIINPSGGSTSYAQKFQGRVTMTRDTSTSTVYMELSSLRSEDTAVYYCAREGYSSSWYDYFDYWGQGTLVTVSS
VL: not shown
notes: Germline Fab made in E. coli; VH was cloned into Plasmid A (CH1, His6 and Flag tags) and the kappa VL into Plasmid C (kappa CL)

ECL signal/noise ratio [11]: 1.2
ECL signal/noise ratio [12]: 1.1
ECL signal/noise ratio [13]: 1.1
ECL signal/noise ratio [14]: 157
ECL signal/noise ratio [15]: 0.9
ECL signal/noise ratio [16]: 1.1
ECL signal/noise ratio [17]: 1.2
ECL signal/noise ratio [18]: 1.1
ECL signal/noise ratio [19]: 1.1
B3: Fab VH5-51_IGHD5-18*01>3_IGHJ4*01 G100K/G104T & V3-4_IGLJ1*01 (Fab, V domains shown)
VH: EVQLVQSGAEVKKPGESLKISCKGSGYSFTSYWIGWVRQMPGKGLEWMGIIYPGDSDTRYSPSFQGQVTISADKSISTAYLQWSSLKASDTAMYYCARRKYSYTYDYFDYWGQGTLVTVSS
VL: QTVVTQEPSFSVSPGGTVTLTCGLSSGSVSTSYYPSWYQQTPGQAPRTLIYSTNTRSSGVPDRFSGSILGNKAALTITGAQADDESDYYCVLYMGSGISYVFGTGTKVTVL
notes: Tested as a Fab; The constant parts are the same as for the parent Fab (CH1 with His6/Flag tags, lambda CL); also called KT double mutant; H:KT
